These results are taken from patent publication US20250066503A1, “CELL INJURY INDUCING THERAPEUTIC DRUG FOR USE IN CANCER THERAPY” (CHUGAI SEIYAKU KABUSHIKI KAISHA, priority 2016, published 2025).

Residue numbers refer to the chain shown, from its start.

The assay has as its target T1, soluble human CD3 epsilon chain (human, UniProt P07766 23-126).
T1 construct: also called CD3ε
Nature of the assay: SPR.

T1 sequence (P07766 23-126 limits assumed): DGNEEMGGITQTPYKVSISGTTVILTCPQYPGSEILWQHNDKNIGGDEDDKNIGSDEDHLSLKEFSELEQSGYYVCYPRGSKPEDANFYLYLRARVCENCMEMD

B1: TR01H062-E22Hh/none-Hi-Kn010G3/L0000-k0 (antibody, V domains shown)
VH: QVQLVESGGGLVQPGRSLRLSCAASGFTFSNAWMHWVRQAPGKGLEWVAQIKDKSQNYATYYAESVKGRFTISRADSKNSIYLQMNSLKTEDTAVYYCRYVHYAASYGVDAWGQGTTVTVSS
VL: DIVMTQSPLSLPVTPGEPASISCRSSQSLVHSNRNTYLHWYQQKPGQAPRLLIYKVSNRFSGVPDRFSGSGSGTDFTLKISRVEAEDVGVYYCGQGTQVPYTFGQGTKLEIKR
notes: one-arm
Regarding B1, the Kd (commonly the concentration at which binding is half-saturated) is 31.3 nM.

B2: CE115HA177-G1dh//-Hi-Kn010G3/L0000-k0 (antibody, V domains shown)
VH: B1 VH with D53A, Q56N, A104G, S106Y
VL: B1 VL
notes: one-arm
With B2, the Kd was found to be 35.5 nM.

B3: TR01H013-E22Hh/none-Hi-Kn010G3/L0000-k0 (antibody, V domains shown)
VH: B1 VH with D53G, A104G, S106Y, A111I
VL: B1 VL
notes: one-arm
For the molecule B3, binding was put at a Kd of 49.4 nM.

B4: TR01H027-E22Hh/none-Hi-Kn010G3/L0000-k0 (antibody, V domains shown)
VH: B1 VH with R16G, D53S, A104S
VL: B1 VL
notes: one-arm
Turning to B4, binding was characterised by a dissociation constant (Kd) of 69.5 nM.

B5: TR01H018-E22Hh/none-Hi-Kn010G3/L0000-k0 (antibody)
VH: B1 VH with R16G, D53G, Q56N, A104S, A111I
light: DIVMTQSPLSLPVTPGEPASISCRSSQSLVHSNRNTYLHWYQQKPGQAPRLLIYKVSNRFSGVPDRFSGSGSGTDFTLKISRVEAEDVGVYYCGQGTQVPYTFGQGTKLEIKRTVAAPSVFIFPPSDEQLKSGTASVVCLLNNFYPREAKVQWKVDNALQSGNSQESVTEQDSKDSTYSLSSTLTLSKADYEKHKVYACEVTHQGLSSPVTKSFNRGEC
notes: one-arm
B5 returned an equilibrium dissociation constant (Kd) of 69.3 nM.

B6: TR01H034-E22Hh/none-Hi-Kn010G3/L0000-k0 (antibody, V domains shown)
VH: B1 VH with D53G, A104S
VL: B1 VL
notes: one-arm
Consider B6, for which binding was put at a Kd of 91.1 nM.

B7: CE115HA180-G1dh//-Hi-Kn010G3/L0000-k0 (antibody, V domains shown)
VH: B1 VH with L11V, D53A, Q56N, I81L, A104G, S106Y, D110Q
VL: B1 VL
notes: one-arm
The molecule B7 yielded a Kd of 16.8 nM. Compared with the last molecule, the Kd is about 5.4-fold lower.

B8: CE115HA179-G1dh//-Hi-Kn010G3/L0000-k0 (antibody, V domains shown)
VH: B1 VH with D53A, Q56N, A104G, S106Y, D110Q
VL: B1 VL
notes: one-arm
Take B8: the Kd is 8.35 nM.

B9: CE115HA178-G1dh//-Hi-Kn010G3/L0000-k0 (antibody, V domains shown)
VH: B1 VH with D53A, Q56N, A75D, A104G, S106Y, D110Q
VL: B1 VL
notes: one-arm
B9: binding was put at a Kd of 10.9 nM. The Kd values of the last two molecules are within 1.5-fold of each other.

B10: CE115HA121-E22Hh/-Hi-Kn010G3/L0000-k0 (antibody, V domains shown)
VH: B1 VH with L11V, Q50L, D53A, Q56N, A75D, I81L, A104G, S106Y
VL: B1 VL
notes: one-arm
B10 yielded a Kd of 67.6 nM.

B11: CE115HA124-E22Hh//-Hi-Kn010G3/L0000-k0 (antibody, V domains shown)
VH: B1 VH with L11V, D53A, K54L, Q56N, A75D, I81L, A104G, S106Y
VL: B1 VL
notes: one-arm
Turning to B11, the dissociation constant (Kd) is 143 nM.

B12: TR01H031-E22Hh/none-Hi-Kn010G3/L0000-k0 (antibody)
VH: B1 VH with L11V, R16G, D53G, Q56N, A104S, A111I
light: B5 light
notes: one-arm
In turn, B12 returned a Kd of 75.5 nM. Against the preceding molecule, the Kd is about 1.9-fold lower.

B13: TR01H007-E22Hh/none-Hi-Kn010G3/L0000-k0 (antibody, V domains shown)
VH: B1 VH with D53S, Q56N, A104G, S106Y, A111I
VL: B1 VL
notes: one-arm
The molecule B13 came in with a Kd of 21.7 nM.

B14: TR01H016-E22Hh/none-Hi-Kn010G3/L0000-k0 (antibody, V domains shown)
VH: B1 VH with D53G, Q56N, A104S, A105Y, A111I
VL: B1 VL
notes: one-arm
With B14, binding was characterised by a dissociation constant (Kd) of 36.9 nM.

B15: TR01H009-E22Hh/none-Hi-Kn010G3/L0000-k0 (antibody, V domains shown)
VH: B1 VH with D53A, Q56N, E64P, A104G, S106Y, A111I
VL: B1 VL
notes: one-arm
Turning to B15, the Kd came to 31.5 nM.

B16: TR01H020-E22Hh/none-Hi-Kn010G3/L0000-k0 (antibody, V domains shown)
VH: B1 VH with D53G, Q56N, E64P, A104S, A111I
VL: B1 VL
notes: one-arm
In turn, B16 had a Kd of 64.8 nM.

B17: TR01H006-E22Hh/none-Hi-Kn010G3/L0000-k0 (antibody, V domains shown)
VH: B1 VH with D53A, A104G, S106Y, A111I
VL: B1 VL
notes: one-arm
B17 displayed a Kd of 23 nM.

B18: TR01H035-E22Hh/none-Hi-Kn010G3/L0000-k0 (antibody, V domains shown)
VH: B1 VH with D53G, A104S, A111Y
VL: B1 VL
notes: one-arm
B18 yielded a Kd of 84.9 nM. This Kd is about 3.7-fold higher than that of the molecule before.

B19: CE115HA192-E22Hh//-Hi-Kn010G3/L0000-k0 (antibody, V domains shown)
VH: B1 VH with L11V, D53A, Q56N, A75D, I81L, A104Y, S106Y
VL: B1 VL
notes: one-arm
The molecule B19 registered a Kd of 50.5 nM.

B20: TR01H037-E22Hh/none-Hi-Kn010G3/L0000-k0 (antibody, V domains shown)
VH: B1 VH with H35P, D53G, Q56N, A104S, A111I
VL: B1 VL
notes: one-arm
For B20, binding was characterised by a dissociation constant (Kd) of 6.93 nM. This Kd is about 7.3-fold lower than that of the molecule before.

B21: TR01H021-E22Hh/none-Hi-Kn010G3/L0000-k0 (antibody, V domains shown)
VH: B1 VH with D53G, Q56N, A104S
VL: B1 VL
notes: one-arm
In turn, B21 gave an equilibrium dissociation constant (Kd) of 80.5 nM. Compared with the last molecule, the Kd is about 12-fold higher.

B22: TR01H011-E22Hh/none-Hi-Kn010G3/L0000-k0 (antibody, V domains shown)
VH: B1 VH with D53A, Q56N, A104G, A111I
VL: B1 VL
notes: one-arm
Molecule B22 came in with a Kd of 37.1 nM.

B23: TR01H003-E22Hh//-Hi-Kn010G3/L0000-k0 (antibody, V domains shown)
VH: B1 VH with L11V, D53A, Q56N, A75D, I81L, Y100R, A104G, S106Y
VL: B1 VL
notes: one-arm
As to B23, binding was put at a Kd of 40.3 nM. The Kd values of the last two molecules are within 1.5-fold of each other.

B24: TR01H004-E22Hh//-Hi-Kn010G3/L0000-k0 (antibody, V domains shown)
VH: B1 VH with L11V, D53A, Q56N, A75D, I81L, Y100R, A104Y, A105Y, S106Y
VL: B1 VL
notes: one-arm; also called TR01H004-E22Hh//-Hi-Kn010G3/10000-ko
B24 displayed a Kd of 135 nM.

B25: TR01H025-E22Hh/none-Hi-Kn010G3/L0000-k0 (antibody, V domains shown)
VH: B1 VH with D53S, A104S, A111I
VL: B1 VL
notes: one-arm
As for B25, the Kd was 38.6 nM.

B26: TR01H024-E22Hh/none-Hi-Kn010G3/L0000-k0 (antibody, V domains shown)
VH: B1 VH with R16G, D53G, A104S
VL: B1 VL
notes: one-arm
For B26, the dissociation constant Kd is 108 nM.

B27: TR01H010-E22Hh/none-Hi-Kn010G3/L0000-k0 (antibody, V domains shown)
VH: B1 VH with D53A, Q56N, A104S, S106Y, A111I
VL: B1 VL
notes: one-arm
For the molecule B27, the Kd was determined as 37.3 nM.

B28: TR01H026-E22Hh/none-Hi-Kn010G3/L0000-k0 (antibody, V domains shown)
VH: B1 VH with R16G, D53S, A104S, A111I
VL: B1 VL
notes: one-arm
Turning to B28, binding was characterised by a dissociation constant (Kd) of 51.2 nM.

B29: TR01H017-E22Hh/none-Hi-Kn010G3/L0000-k0 (antibody, V domains shown)
VH: B1 VH with R16G, D53A, Q56N, A104G, S106Y, A111I
VL: B1 VL
notes: one-arm
The molecule B29 returned a Kd of 35 nM.

B30: TR01H030-E22Hh/none-Hi-Kn010G3/L0000-k0 (antibody)
VH: B1 VH with L11V, D53G, Q56N, A104S, A111I
light: B5 light
notes: one-arm
In the case of B30, the affinity, expressed as Kd, was 65.4 nM. Against the preceding molecule, the Kd is about 1.9-fold higher.

B31: TR01H036-E22Hh/none-Hi-Kn010G3/L0000-k0 (antibody, V domains shown)
VH: B1 VH with D53G, Q56N, A104S, A111Y
VL: B1 VL
notes: one-arm
Molecule B31 registered a Kd of 65 nM. The Kd values of the last two molecules are within 1.5-fold of each other.

B32: TR01H014-E22Hh/none-Hi-Kn010G3/L0000-k0 (antibody, V domains shown)
VH: B1 VH with D53G, Q56N, E64P, A104G, S106Y, A111I
VL: B1 VL
notes: one-arm
B32 came in with a Kd of 38.7 nM. This Kd lies about 1.7-fold lower than the previous one.

B33: TR01H008-E22Hh/none-Hi-Kn010G3/L0000-k0 (antibody, V domains shown)
VH: B1 VH with D53G, Q56N, A104G, S106Y, A111I
VL: B1 VL
notes: one-arm
For B33, the Kd is 42.2 nM.

B34: TR01H028-E22Hh/none-Hi-Kn010G3/L0000-k0 (antibody, V domains shown)
VH: B1 VH with L11V, R16G, D53S, A104S, A111I
VL: B1 VL
notes: one-arm
With B34, the Kd turned out to be 48 nM.

B35: TR01H012-E22Hh/none-Hi-Kn010G3/L0000-k0 (antibody, V domains shown)
VH: B1 VH with D53A, Q56N, A104Y, A105Y, A111I
VL: B1 VL
notes: one-arm
B35: the Kd was found to be 7.94 nM.

B36: CE115HA252-E22Hh//-Hi-Kn010G3/L0000-k0 (antibody, V domains shown)
VH: B1 VH with L11V, D53A, Q56N, A59K, T60K, A75D, I81L, A104Y, A105Y, S106Y
VL: B1 VL
notes: one-arm
Molecule B36 registered an equilibrium dissociation constant (Kd) of 9.48 nM.

B37: TR01H019-E22Hh/none-Hi-Kn010G3/L0000-k0 (antibody, V domains shown)
VH: B1 VH with D53G, A104S, A111I
VL: B1 VL
notes: one-arm
In the case of B37, the Kd turned out to be 68.5 nM.

B38: TR01H029-E22Hh/none-Hi-Kn010G3/L0000-k0 (antibody, V domains shown)
VH: B1 VH with A23S, D53G, Q56N, A104S, A111I
VL: B1 VL
notes: one-arm
For the molecule B38, binding was characterised by a dissociation constant (Kd) of 67 nM.

B39: TR01H022-E22Hh/none-Hi-Kn010G3/L0000-k0 (antibody, V domains shown)
VH: B1 VH with R16G, D53G, E64P, A104S, A111I
VL: B1 VL
notes: one-arm
Turning to B39, binding was characterised by a dissociation constant (Kd) of 75.8 nM.

B40: TR01H023-E22Hh/none-Hi-Kn010G3/L0000-k0 (antibody, V domains shown)
VH: B1 VH with R16G, D53G, A104S, A111I
VL: B1 VL
notes: one-arm
In turn, B40 displayed a Kd of 79.4 nM.

B41: TR01H032-E22Hh/none-Hi-Kn010G3/L0000-k0 (antibody, V domains shown)
VH: B1 VH with D53S, A104S
VL: B1 VL
notes: one-arm
Consider B41, for which binding was put at a Kd of 57.3 nM.

B42: TR01H033-E22Hh/none-Hi-Kn010G3/L0000-k0 (antibody, V domains shown)
VH: B1 VH with D53S, A104S, A111Y
VL: B1 VL
notes: one-arm
The molecule B42 came in with a Kd of 48.8 nM. This Kd and that of the molecule before are within 1.5-fold of each other.
